B1: LIPA dsRNA: long dsRNA against G. orontii TAG lipase A (target SEQ ID NO:2) (nucleic acid)
chain: CTCTTACGCTCATTCTCACGTATATTTCATCGTCGAAAAGGAAGTAGGCCAGAAAGACATATGCACTCTAACATTGAATGTACGAACTGCACTGTTCATATGGGATTTTGGACAAGCTACCAACAAATACGTCCTCATTTATTCTCCAAGATTAGTAGCCTTCGAAAAAAATTCCCTAACTATCGATTGGATTTAGTCGGACACTCACTAGGTGGCGCTGTTGCTGCTCTTGCTGGACTTGATCTTAAATTACTTGGATACGAACCTATCGTAACAAC
modifications: misc_feature 1..278: note = Inhibitory double stranded RNA; listed as RNA
B2: CYP51 dsRNA-1: long dsRNA targeting G. orontii MGH1 CYP51 (target SEQ ID NO:85); link to SEQ ID NO:212 likely (nucleic acid)
chain: TACGTGAAGAAGTGTCCCAGCTTCAAAGGACAAAAAGGCACCGTTAATATAACTGAAGTTATGGCTGAAATCACTATCTACACTGCTTCGCATACTCTACAAGGAAAACAGGTTCGTGACAGGTTTGATTCCTCTTTTGCCGCTCTCTATCATGACCTCGATATGGGGTTCACCCCAATTAATTTTGTGCTGCATTGGG
modifications: misc_feature 1..199: note = Inhibitory double stranded RNA; listed as RNA
B3: AATF dsRNA: long dsRNA against G. orontii apoptosis antagonizing transcription factor (target SEQ ID NO:92) (nucleic acid)
chain: TCCGAAGGAGAGTATTCATCAGAAACTCAGGTTTCAGAATACTCGGACGATCAACTCAACTCTGATAATCTTGAAGATGAAGAATCTGATAGTGATGATGATGATGATATTGGAGATGAAAGAACCGAACGATCCGAAATTCAGAAAATCATGAAAGAAGATCAAAAGACCGTGGTATCAACAATATCTCAAGCAGTAAAAGCAGATGTTGAAAAGGGTAAAGCTGTCAAGGCTCAGCGAATGAGATTCGATTGTTTGTTAAATGTACGAATGGCAATGCAAAA
modifications: misc_feature 1..284: note = Inhibitory double stranded RNA; listed as RNA
B4: LIP1 dsRNA: long dsRNA against G. orontii TAG lipase 1 (target SEQ ID NO:1) (nucleic acid)
chain: ACCTCTGCTGGTTCTATCTCTGCTTTTAACTTATTAGTCGCCAAAGATGGTGCTTTATCTTATAATGGCAAACCGCTATTCCGTGCTGCTATTATGGACAGTGGTAGCATCGTGCCTACTGATGCGGTGAACTCCCCGAAGCCACAAAATGTTTTCGATCAAGTCGTGAGTGCTGGAGGCTGTAGTGAAGCATATGACAAAATTAGCTGTCTACGGAATCTCGACTACACCGAGTTTTTGTTCGCAAGTACATCAGTTCCTGGTCTATTTGACTACCAATCAGTAGCACTTTCATACATCCCGCGACCTGACGGTGATCTTTTGACCGCATCTATGGATGAATT
modifications: misc_feature 1..344: note = Inhibitory double stranded RNA; listed as RNA
B5: BCDO dsRNA: long dsRNA targeting G. orontii MGH1 BCDO (target SEQ ID NO:145) (nucleic acid)
chain: ACTGCTCATAGTAATCCTATCCTATTTGCCCGGCTCGACTCAGGTGATCAAAAGGATTAGTGTAGCTAACACCAATATCTTATACCATGATGGACGGGCTTTGGCGACCTGCGAAAGTGGCCCACCAATGAGAGTTGTTCTCCCTCATCTGGATACAGTCGGTTGGTTCGATGGGCTGAAGGTAGGGGGAGAAAAGGCTACCGATGAATCGGACGGTCAATCCTTTGCGAAAGAAGGAACCTTTAATGTATTGGATGGACGGACAAC
modifications: misc_feature 1..267: note = Inhibitory double stranded RNA; listed as RNA
B6: OEC60/OEC61 dsRNA: long dsRNA against G. orontii effector candidate 60/61 (target SEQ ID NO:122) (nucleic acid)
chain: CACAAAATGGGCCAAATGGGAAATTGTCGAGCTAATTGTGATTGGAAACGAAGCCCTATTTAATGGCCATACTTCTCCAGATGAGCTCGCAAGATTTATTAGCTCAACCAGAAATACACTACGATCCTCTGGTTACAATGGACCTTGCACAACAGCTGAGCCTCTCAATATCTGGCAGCAAAGCTCGGATGTATTGTGTGGT
modifications: misc_feature 1..202: note = Inhibitory double stranded RNA; listed as RNA
B7: OEC14 dsRNA: long dsRNA against G. orontii effector candidate 14 (target SEQ ID NO:124) (nucleic acid)
chain: CACAACAGCTCTCCTAATCTCTCCCTCCCTAGGAGTTAATTCAGCTCAGAACGGCGAAACTCCCGATGACGATTCATTAGGTTCTACGAAACACATGAACTTTGGCTCTGGTCTCTCTGAATTCAATGCTCATGAAGATATGTATGTTCCTGCCATGGATCTGAATGGGTTTAGAATAAAGCGACGACATTTTCAAAATGAAGGCTATTACTGCAGCAAATCG
modifications: misc_feature 1..223: note = Inhibitory double stranded RNA; listed as RNA
B8: OEC70 dsRNA: long dsRNA against G. orontii effector candidate 70 (target SEQ ID NO:123) (nucleic acid)
chain: ACAGAGACCGTAACCGTAACTGTCTGTGCACCATCTGCCTCTGCCCATCCCTCTTCGGGATATGCTATGCCATCAGTCTATCCGGCACCAGTTTCATCAGACCCTGCCAGTCCTGCATACCCGCCAAGCGCTTCTGGTGGCTACTCCTCTCCACCACCAAACCAAACTCCAGCACCATTCACCGGCGCCGCTTCAGCAAACGCAGCTCAGGTAGTATCAGCCATTATTGCTGC
modifications: misc_feature 1..233: note = Inhibitory double stranded RNA; listed as RNA
B9: APC1 dsRNA: dsRNA against G. orontii APC1, Anaphase promoting complex/20S cyclosome subunit (target SEQ ID NO:163) (nucleic acid)
chain: AGATTGGTATTATCTCGCCTGAATATGCAACGTTTAGAAGTTCTATTCAGACAAAGCCGACTCTTAATCAACGCAAGGTTTTTACGGTGGCGCCGCCCTTGTGCGCTTCTGACGATGTACAGGAGAATTCTTGTATTATTTGTATCCTTGATCCTAATGAAAAGAAACTTATTACTGTAAATTTAAATATCAAGGCCTCGGAGCAAAAAAGTGAACTCGCAAAATCGGAAAATCTAAAATCTAAGAAAGAGGCAACTACAGTGTCACTT
modifications: misc_feature 1..269: note = Inhibitory double stranded RNA; listed as RNA

What follows are molecules tested on G. orontii MGH1 (assay: Spray-induced gene silencing (SIGS), G. orontii spore production on A. thaliana (whole plant and detached leaf assays)). Details: A. thaliana detached leaf assay; vs buffer control.
Assay type: in vivo, Golovinomyces orontii

Molecule | average reduction in spore production [%]
B1 | 67
B2 | 30
B3 | 32
B4 | 51
B5 | 54

Same assay, conditions: A. thaliana plants, 9 days post infection; vs buffer control-sprayed plants

Molecule | visual powdery mildew coverage and density
B2 | less powdery mildew coverage and density

Same assay, conditions: A. thaliana whole plant assay; long dsRNA; vs buffer control

Molecule | effect on spore production
B6 | significantly reduced spore production
B7 | significantly reduced spore production
B8 | significantly reduced spore production

Same assay, conditions: A. thaliana whole plant assay; vs buffer control

Molecule | average reduction in spore production [%]
B1 | 41
B2 | 46
B3 | 21
B4 | 22
B5 | 50

Same assay, conditions: assay format not stated

Molecule | reduction in spore production [%]
B9 | 48

From US20260117244A1, “INHIBITORY RNA FOR THE CONTROL OF PHYTOPATHOGENS” (priority 2021, published 2026)
